Source: the supplement of paper PMC9112550, “Optimization of the antimicrobial peptide Bac7 by deep mutational scanning” (BMC Biology, 2022)
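Note: peptides expressed intracellularly from a pBAD plasmid library in pooled LB shake-flask culture, induced with 0.3% L-arabinose, DNA abundance read by NGS, three biological replicates, DESeq2 with apeglm shrinkage.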

The sequences below were run on Escherichia coli TOP10 (assay: shrunken log2 fold change of peptide-encoding DNA abundance (4.5 h post-induction vs induction); higher = less antimicrobial activity (less host growth inhibition)). Conditions: time post-induction: 4.5 h; library: site-saturation at positions 5, 18, 19, 20.
RRIRMRPPRLPRPRPRPIQCPRP was tested, and the “shrunken log2 fold change” value was -0.239. RRIRMRPPRLPRPRPRPIREPRP was tested, and the “shrunken log2 fold change” value was 0.425. RRIRMRPPRLPRPRPRPIRIPRP was tested, and the “shrunken log2 fold change” value was -0.0023. In the case of RRIRMRPPRLPRPRPRPIRWPRP, the “shrunken log2 fold change” value was 0.632. For RRIRMRPPRLPRPRPRPISMPRP, the “shrunken log2 fold change” value was 0.0246. With RRIRMRPPRLPRPRPRPIVIPRP the “shrunken log2 fold change” value was -0.0284. RRIRMRPPRLPRPRPRPIVYPRP was tested, and the “shrunken log2 fold change” value was 0.00317. In the case of RRIRMRPPRLPRPRPRPIYEPRP, the “shrunken log2 fold change” value was -0.0231. With RRIRMRPPRLPRPRPRPKAKPRP the “shrunken log2 fold change” value was 0.0227. With RRIRMRPPRLPRPRPRPKCCPRP the “shrunken log2 fold change” value was 0.26. With RRIRMRPPRLPRPRPRPKCFPRP the “shrunken log2 fold change” value was 0.0196. RRIRMRPPRLPRPRPRPKCVPRP was tested, and the “shrunken log2 fold change” value was 0.0964. RRIRMRPPRLPRPRPRPKCYPRP was tested, and the “shrunken log2 fold change” value was -0.0362. For RRIRMRPPRLPRPRPRPKDKPRP, the “shrunken log2 fold change” value was 1.93. For RRIRMRPPRLPRPRPRPKDMPRP, the “shrunken log2 fold change” value was 0.0907. With RRIRMRPPRLPRPRPRPKDPPRP the “shrunken log2 fold change” value was 0.438. In the case of RRIRMRPPRLPRPRPRPKDSPRP, the “shrunken log2 fold change” value was 1.66. RRIRMRPPRLPRPRPRPKFVPRP was tested, and the “shrunken log2 fold change” value was 0.0832. For RRIRMRPPRLPRPRPRPKGFPRP, the “shrunken log2 fold change” value was 0.00502. RRIRMRPPRLPRPRPRPKHAPRP was tested, and the “shrunken log2 fold change” value was 3.03. In the case of RRIRMRPPRLPRPRPRPKIKPRP, the “shrunken log2 fold change” value was 0.248. For RRIRMRPPRLPRPRPRPKKPPRP, the “shrunken log2 fold change” value was 0.102. With RRIRMRPPRLPRPRPRPKKVPRP the “shrunken log2 fold change” value was 0.561. In the case of RRIRMRPPRLPRPRPRPKLDPRP, the “shrunken log2 fold change” value was 1.7. In the case of RRIRMRPPRLPRPRPRPKLNPRP, the “shrunken log2 fold change” value was 0.851. With RRIRMRPPRLPRPRPRPKNQPRP the “shrunken log2 fold change” value was 0.618. For RRIRMRPPRLPRPRPRPKPWPRP, the “shrunken log2 fold change” value was 1.12. For RRIRMRPPRLPRPRPRPKTQPRP, the “shrunken log2 fold change” value was 0.971. For RRIRMRPPRLPRPRPRPKTWPRP, the “shrunken log2 fold change” value was 0.602. In the case of RRIRMRPPRLPRPRPRPKTYPRP, the “shrunken log2 fold change” value was -0.0099. RRIRMRPPRLPRPRPRPKWQPRP was tested, and the “shrunken log2 fold change” value was -0.0255. In the case of RRIRMRPPRLPRPRPRPLCEPRP, the “shrunken log2 fold change” value was 0.653. With RRIRMRPPRLPRPRPRPLCMPRP the “shrunken log2 fold change” value was 0.0571. With RRIRMRPPRLPRPRPRPLDDPRP the “shrunken log2 fold change” value was 3.25. In the case of RRIRMRPPRLPRPRPRPLDLPRP, the “shrunken log2 fold change” value was 0.062. With RRIRMRPPRLPRPRPRPLENPRP the “shrunken log2 fold change” value was 0.0866. RRIRMRPPRLPRPRPRPLGGPRP was tested, and the “shrunken log2 fold change” value was 0.548. With RRIRMRPPRLPRPRPRPLHMPRP the “shrunken log2 fold change” value was -0.0934. For RRIRMRPPRLPRPRPRPLHPPRP, the “shrunken log2 fold change” value was 0.439. With RRIRMRPPRLPRPRPRPLIIPRP the “shrunken log2 fold change” value was -0.249. With RRIRMRPPRLPRPRPRPLKTPRP the “shrunken log2 fold change” value was 0.642. With RRIRMRPPRLPRPRPRPLMFPRP the “shrunken log2 fold change” value was 0.0219. In the case of RRIRMRPPRLPRPRPRPLMKPRP, the “shrunken log2 fold change” value was 0.313. For RRIRMRPPRLPRPRPRPLMNPRP, the “shrunken log2 fold change” value was -0.263. With RRIRMRPPRLPRPRPRPLNDPRP the “shrunken log2 fold change” value was 0.106. With RRIRMRPPRLPRPRPRPLNHPRP the “shrunken log2 fold change” value was -0.0957. With RRIRMRPPRLPRPRPRPLNNPRP the “shrunken log2 fold change” value was 0.0119. In the case of RRIRMRPPRLPRPRPRPLPGPRP, the “shrunken log2 fold change” value was 0.8. For RRIRMRPPRLPRPRPRPLQCPRP, the “shrunken log2 fold change” value was -0.0663. In the case of RRIRMRPPRLPRPRPRPLQIPRP, the “shrunken log2 fold change” value was -0.343. With RRIRMRPPRLPRPRPRPLQMPRP the “shrunken log2 fold change” value was 2.29. RRIRMRPPRLPRPRPRPLQTPRP was tested, and the “shrunken log2 fold change” value was 3.06. RRIRMRPPRLPRPRPRPLRLPRP was tested, and the “shrunken log2 fold change” value was 0.959. In the case of RRIRMRPPRLPRPRPRPLSAPRP, the “shrunken log2 fold change” value was 1.19. For RRIRMRPPRLPRPRPRPLSKPRP, the “shrunken log2 fold change” value was -0.103. In the case of RRIRMRPPRLPRPRPRPLSNPRP, the “shrunken log2 fold change” value was -0.0789. RRIRMRPPRLPRPRPRPLSQPRP was tested, and the “shrunken log2 fold change” value was 0.0295. In the case of RRIRMRPPRLPRPRPRPLSWPRP, the “shrunken log2 fold change” value was 0.982. RRIRMRPPRLPRPRPRPLTGPRP was tested, and the “shrunken log2 fold change” value was 0.0753. With RRIRMRPPRLPRPRPRPLTMPRP the “shrunken log2 fold change” value was 0.24. For RRIRMRPPRLPRPRPRPLYIPRP, the “shrunken log2 fold change” value was -1.01. With RRIRMRPPRLPRPRPRPMAFPRP the “shrunken log2 fold change” value was 0.102. With RRIRMRPPRLPRPRPRPMCEPRP the “shrunken log2 fold change” value was 0.273. For RRIRMRPPRLPRPRPRPMCPPRP, the “shrunken log2 fold change” value was -0.00088. For RRIRMRPPRLPRPRPRPMCSPRP, the “shrunken log2 fold change” value was -0.00161. In the case of RRIRMRPPRLPRPRPRPMDPPRP, the “shrunken log2 fold change” value was 0.038. For RRIRMRPPRLPRPRPRPMEDPRP, the “shrunken log2 fold change” value was 0.0119. RRIRMRPPRLPRPRPRPMFKPRP was tested, and the “shrunken log2 fold change” value was 0.0609. RRIRMRPPRLPRPRPRPMFQPRP was tested, and the “shrunken log2 fold change” value was -0.228. For RRIRMRPPRLPRPRPRPMFYPRP, the “shrunken log2 fold change” value was -0.127. With RRIRMRPPRLPRPRPRPMGHPRP the “shrunken log2 fold change” value was -0.032. With RRIRMRPPRLPRPRPRPMLNPRP the “shrunken log2 fold change” value was -0.0171. For RRIRMRPPRLPRPRPRPMLPPRP, the “shrunken log2 fold change” value was 0.301. RRIRMRPPRLPRPRPRPMLTPRP was tested, and the “shrunken log2 fold change” value was 2.52. For RRIRMRPPRLPRPRPRPMNMPRP, the “shrunken log2 fold change” value was -0.344.
